In PMC11811891, “Structural insights into human TFIIIC promoter recognition” (Science Advances, 2023):

B1: human TFIIIC subunit TFIIIC63 (natural protein)
chain: MAAEAADLGLGAAVPVELRRERRMVCVEYPGVVRDVAKMLPTLGGEEGVSRIYADPTKRLELYFRPKDPYCHPVCANRFSTSSLLLRIRKRTRRQKGVLGTEAHSEVTFDMEILGIISTIYKFQGMSDFQYLAVHTEAGGKHTSMYDKVLMLRPEKEAFFHQELPLYIPPPIFSRLDAPVDYFYRPETQHREGYNNPPISGENLIGLSRARRPHNAIFVNFEDEEVPKQPLEAAAQTWRRVCTNPVDRKVEEELRKLFDIRPIWSRNAVKANISVHPDKLKVLLPFIAYYMITGPWRSLWIRFGYDPRKNPDAKIYQVLDFRIRCGMKHGYAPSDLPVKAKRSTYNYSLPITVKKTSSQLVTMHDLKQGLGPSGTSGARKPASSKYKLKDSVYIFREGALPPYRQMFYQLCDLNVEELQKIIHRNDGAENSCTERDGWCLPKTSDELRDTMSLMIRQTIRSKRPALFSSSAKADGGKEQLTYESGEDEEDEEEEEEEEEDFKPSDGSENEMETEILDYV
notes: TFIIIC63, subunit of human TFIIIC; coding gene from DNASU, codon-optimized for insect cells; No truncation is described; also called τ95 in yeast (homolog); GTC3C5 (so in the source); source: Sf21 insect cells, baculovirus, coexpressed with the other five hTFIIIC subunits; purified (anti-FLAG M2 agarose, Capto HiRes Q)
B2: human TFIIIC subunit TFIIIC110 (natural protein)
chain: MDTCGVGYVALGEAGPVGNMTVVDSPGQEVLNQLDVKTSSEMTSAEASVEMSLPTPLPGFEDSPDQRRLPPEQESLSRLEQPDLSSEMSKVSKPRASKPGRKRGGRTRKGPKRPQQPNPPSAPLVPGLLDQSNPLSTPMPKKRGRKSKAELLLLKLSKDLDRPESQSPKRPPEDFETPSGERPRRRAAQVALLYLQELAEELSTALPAPVSCPEGPKVSSPTKPKKIRQPAACPGGEEVDGAPRDEDFFLQVEAEDVEESEGPSESSSEPEPVVPRSTPRGSTSGKQKPHCRGMAPNGLPNHIMAPVWKCLHLTKDFREQKHSYWEFAEWIPLAWKWHLLSELEAAPYLPQEEKSPLFSVQREGLPEDGTLYRINRFSSITAHPERWDVSFFTGGPLWALDWCPVPEGAGASQYVALFSSPDMNETHPLSQLHSGPGLLQLWGLGTLQQESCPGNRAHFVYGIACDNGCIWDLKFCPSGAWELPGTPRKAPLLPRLGLLALACSDGKVLLFSLPHPEALLAQQPPDAVKPAIYKVQCVATLQVGSMQATDPSECGQCLSLAWMPTRPHQHLAAGYYNGMVVFWNLPTNSPLQRIRLSDGSLKLYPFQCFLAHDQAVRTLQWCKANSHFLVSAGSDRKIKFWDLRRPYEPINSIKRFLSTELAWLLPYNGVTVAQDNCYASYGLCGIHYIDAGYLGFKAYFTAPRKGTVWSLSGSDWLGTIAAGDISGELIAAILPDMALNPINVKRPVERRFPIYKADLIPYQDSPEGPDHSSASSGVPNPPKARTYTETVNHHYLLFQDTDLGSFHDLLRREPMLRMQEGEGHSQLCLDRLQLEAIHKVRFSPNLDSYGWLVSGGQSGLVRIHFVRGLASPLGHRMQLESRAHFNAMFQPSSPTRRPGFSPTSHRLLPTP
notes: TFIIIC110, subunit of human TFIIIC; No truncation is described; also called τ91 in yeast (homolog); GTF3C2; source: Sf21 insect cells, baculovirus, coexpressed with the other five hTFIIIC subunits; purified (anti-FLAG M2 agarose, Capto HiRes Q)
B3: human TFIIIC subunit TFIIIC102 (natural protein)
chain: MSGFSPELIDYLEGKISFEEFERRREERKTREKKSLQEKGKLSAEENPDDSEVPSSSGINSTKSQDKDVNEGETSDGVRKSVHKVFASMLGENEDDEEEEEEEEEEEEEEETPEQPTAGDVFVLEMVLNRETKKMMKEKRPRSKLPRALRGLMGEANIRFARGEREEAILMCMEIIRQAPLAYEPFSTLAMIYEDQGDMEKSLQFELIAAHLNPSDTEEWVRLAEMSLEQDNIKQAIFCYTKALKYEPTNVRYLWERSSLYEQMGDHKMAMDGYRRILNLLSPSDGERFMQLARDMAKSYYEANDVTSAINIIDEAFSKHQGLVSMEDVNIAAELYISNKQYDKALEIITDFSGIVLEKKTSEEGTSEENKAPENVTCTIPDGVPIDITVKLMVCLVHLNILEPLNPLLTTLVEQNPEDMGDLYLDVAEAFLDVGEYNSALPLLSALVCSERYNLAVVWLRHAECLKALGYMERAAESYGKVVDLAPLHLDARISLSTLQQQLGQPEKALEALEPMYDPDTLAQDANAAQQELKLLLHRSTLLFSQGKMYGYVDTLLTMLAMLLKVAMNRAQVCLISSSKSGERHLYLIKVSRDKISDSNDQESANCDAKAIFAVLTSVLTKDDWWNLLLKAIYSLCDLSRFQEAELLVDSSLEYYSFYDDRQKRKELEYFGLSAAILDKNFRKAYNYIRIMVMENVNKPQLWNIFNQVTMHSQDVRHHRFCLRLMLKNPENHALCVLNGHNAFVSGSFKHALGQYVQAFRTHPDEPLYSFCIGLTFIHMASQKYVLRRHALIVQGFSFLNRYLSLRGPCQESFYNLGRGLHQLGLIHLAIHYYQKALELPPLVVEGIELDQLDLRRDIAYNLSLIYQSSGNTGMAQTLLYTYCSI
notes: TFIIIC102, subunit of human TFIIIC; No truncation is described; also called τ131 in yeast (homolog); GTF3C3; source: Sf21 insect cells, baculovirus, coexpressed with the other five hTFIIIC subunits; purified (anti-FLAG M2 agarose, Capto HiRes Q)
B4: human TFIIIC subunit TFIIIC90 (natural protein)
chain: MNTADQARVGPADDGPAPSGEEEGEGGGEAGGKEPAADAAPGPSAAFRLMVTRREPAVKLQYAVSGLEPLAWSEDHRVSVSTARSIAVLELICDVHNPGQDLVIHRTSVPAPLNSCLLKVGSKTEVAECKEKFAASKDPTVSQTFMLDRVFNPEGKALPPMRGFKYTSWSPMGCDANGRCLLAALTMDNRLTIQANLNRLQWVQLVDLTEIYGERLYETSYRLSKNEAPEGNLGDFAEFQRRHSMQTPVRMEWSGICTTQQVKHNNECRDVGSVLLAVLFENGNIAVWQFQLPFVGKESISSCNTIESGITSPSVLFWWEYEHNNRKMSGLIVGSAFGPIKILPVNLKAVKGYFTLRQPVILWKEMDQLPVHSIKCVPLYHPYQKCSCSLVVAARGSYVFWCLLLISKAGLNVHNSHVTGLHSLPIVSMTADKQNGTVYTCSSDGKVRQLIPIFTDVALKFEHQLIKLSDVFGSVRTHGIAVSPCGAYLAIITTEGMINGLHPVNKNYQVQFVTLKTFEEAAAQLLESSVQNLFKQVDLIDLVRWKILKDKHIPQFLQEALEKKIESSGVTYFWRFKLFLLRILYQSMQKTPSEALWKPTHEDSKILLVDSPGMGNADDEQQEEGTSSKQVVKQGLQERSKEGDVEEPTDDSLPTTGDAGGREPMEEKLLEIQGKIEAVEMHLTREHMKRVLGEVYLHTWITENTSIPTRGLCNFLMSDEEYDDRTARVLIGHISKKMNKQTFPEHCSLCKEILPFTDRKQAVCSNGHIWLRCFLTYQSCQSLIYRRCLLHDSIARHPAPEDPDWIKRLLQSPCPFCDSPVF
notes: TFIIIC90, subunit of human TFIIIC; coding gene from DNASU, codon-optimized for insect cells; No truncation is described; also called τ60 in yeast (homolog); source: Sf21 insect cells, baculovirus, coexpressed with the other five hTFIIIC subunits; purified (anti-FLAG M2 agarose, Capto HiRes Q)
B5: human TFIIIC subunit TFIIIC35 (natural protein)
chain: MAAAADERSPEDGEDEEEEEQLVLVELSGIIDSDFLSKCENKCKVLGIDTERPILQVDSCVFAGEYEDTLGTCVIFEENVEHADTEGNNKTVLKYKCHTMKKLSMTRTLLTEKKEGEENIGGVEWLQIKDNDFSYRPNMICNFLHENEDEEVVASAPDKSLELEEEEIQMNDSSNLSCEQEKPMHLEIEDSGPLIDIPSETEGSVFMETQMLP
notes: TFIIIC35, subunit of human TFIIIC; the ordered GTF3C6 gene encoded a serine in position 1, which was replaced by methionine; No truncation is described; also called τ55 in yeast (homolog); GTF3C6; source: Sf21 insect cells, baculovirus, coexpressed with the other five hTFIIIC subunits; purified (anti-FLAG M2 agarose, Capto HiRes Q)

How the values were obtained:
[1] = target: T1, human TFIIIC subunit TFIIIC220 (human, UniProt Q12789 1-2109); test: mass photometry; purified hTFIIIC alone; 1 μl of sample at 400 nM added to 19 μl of 20 mM Hepes pH 8, 150 mM KCl, 2 mM MgCl2, 5 mM DTT; Refeyn TwoMP; nanomolar concentrations; conditions: both partners purified
T1 construct: TFIIIC220, largest subunit of human TFIIIC; 2109 amino acids as printed; No truncation is described; the expected mass of 624 kDa is that of the intact complex; also called τ138 in yeast (homolog); GTF3C1; source: Sf21 insect cells, baculovirus, coexpressed with the other five hTFIIIC subunits; purified (anti-FLAG M2 agarose, Capto HiRes Q); not shown: 3x FLAG, C-terminal, kept

[2] = target: the molecule itself; test: cryo-EM structure; purified hTFIIIC (3.17 μM) alone or with human TRR-TCT3-2 tRNA gene DNA at a 1:1 molar ratio; EM buffer 20 mM Hepes pH 8, 225 mM KCl, 2 mM MgCl2, 5 mM DTT; 0.1% octyl-β-glucoside; separate reconstructions of τA and of dimeric τB
[3] = target: B1; test: as above; conditions: both partners purified

T1 sequence (Q12789 whole entry, the tested form may be a part): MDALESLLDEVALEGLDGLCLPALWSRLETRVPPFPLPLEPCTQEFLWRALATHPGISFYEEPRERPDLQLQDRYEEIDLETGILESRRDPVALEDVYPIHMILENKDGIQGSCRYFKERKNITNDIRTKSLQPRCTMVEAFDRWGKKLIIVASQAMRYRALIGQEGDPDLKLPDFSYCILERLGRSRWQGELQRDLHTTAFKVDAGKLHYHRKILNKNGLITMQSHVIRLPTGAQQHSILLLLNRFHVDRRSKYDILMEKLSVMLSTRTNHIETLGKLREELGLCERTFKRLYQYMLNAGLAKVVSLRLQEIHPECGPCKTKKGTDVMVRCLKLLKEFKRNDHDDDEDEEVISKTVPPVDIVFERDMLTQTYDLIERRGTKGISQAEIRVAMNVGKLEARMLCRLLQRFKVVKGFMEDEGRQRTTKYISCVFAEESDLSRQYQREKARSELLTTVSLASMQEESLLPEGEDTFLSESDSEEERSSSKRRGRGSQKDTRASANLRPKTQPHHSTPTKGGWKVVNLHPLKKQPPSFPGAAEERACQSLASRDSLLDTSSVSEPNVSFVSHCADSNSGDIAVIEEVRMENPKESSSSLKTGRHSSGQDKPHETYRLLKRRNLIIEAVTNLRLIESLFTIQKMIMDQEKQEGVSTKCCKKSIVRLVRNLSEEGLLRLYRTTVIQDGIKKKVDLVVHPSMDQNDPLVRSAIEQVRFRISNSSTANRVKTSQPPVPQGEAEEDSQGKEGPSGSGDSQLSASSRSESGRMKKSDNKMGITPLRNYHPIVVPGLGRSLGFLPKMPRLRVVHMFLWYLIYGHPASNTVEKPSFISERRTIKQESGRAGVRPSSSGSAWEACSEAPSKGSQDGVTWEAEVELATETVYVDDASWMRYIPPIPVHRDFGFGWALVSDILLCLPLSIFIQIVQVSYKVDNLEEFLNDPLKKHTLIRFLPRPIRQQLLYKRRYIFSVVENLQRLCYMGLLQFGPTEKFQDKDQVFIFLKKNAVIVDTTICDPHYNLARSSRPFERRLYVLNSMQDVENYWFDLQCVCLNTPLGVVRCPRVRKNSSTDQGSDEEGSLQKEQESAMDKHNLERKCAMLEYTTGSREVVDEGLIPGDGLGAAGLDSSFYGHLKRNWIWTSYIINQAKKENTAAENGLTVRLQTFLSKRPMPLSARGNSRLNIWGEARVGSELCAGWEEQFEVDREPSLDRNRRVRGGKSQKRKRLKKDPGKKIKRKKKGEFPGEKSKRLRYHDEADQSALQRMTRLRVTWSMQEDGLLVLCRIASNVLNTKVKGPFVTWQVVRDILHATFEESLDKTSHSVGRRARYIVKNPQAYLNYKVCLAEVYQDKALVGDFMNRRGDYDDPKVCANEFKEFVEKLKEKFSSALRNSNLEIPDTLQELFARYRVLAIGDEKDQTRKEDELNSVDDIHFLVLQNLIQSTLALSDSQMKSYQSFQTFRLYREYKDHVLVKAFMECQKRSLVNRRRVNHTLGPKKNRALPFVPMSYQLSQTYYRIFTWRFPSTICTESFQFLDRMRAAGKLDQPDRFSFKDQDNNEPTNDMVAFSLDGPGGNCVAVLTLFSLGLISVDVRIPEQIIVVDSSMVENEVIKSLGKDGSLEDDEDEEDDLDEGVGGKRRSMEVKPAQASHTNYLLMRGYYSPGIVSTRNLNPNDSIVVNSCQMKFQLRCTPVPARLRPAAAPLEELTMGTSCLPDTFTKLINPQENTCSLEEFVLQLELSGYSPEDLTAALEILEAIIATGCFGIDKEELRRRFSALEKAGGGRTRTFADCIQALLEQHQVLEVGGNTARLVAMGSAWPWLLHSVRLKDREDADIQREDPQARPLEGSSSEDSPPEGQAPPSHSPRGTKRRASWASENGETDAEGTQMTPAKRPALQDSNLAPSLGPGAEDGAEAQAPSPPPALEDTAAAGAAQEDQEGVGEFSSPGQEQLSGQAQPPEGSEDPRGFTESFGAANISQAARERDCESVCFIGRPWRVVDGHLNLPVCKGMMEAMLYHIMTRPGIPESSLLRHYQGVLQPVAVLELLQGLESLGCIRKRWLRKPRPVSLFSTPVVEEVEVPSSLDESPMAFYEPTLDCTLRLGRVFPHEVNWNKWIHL

Row | Binder | binding result [1] | stoichiometry N [2] | binding result [3]
1 | B1 | binds | – | –
2 | B2 | binds | 2 | –
3 | B3 | binds | – | –
4 | B4 | binds | – | –
5 | B5 | binds | – | binds
